In patent publication US20220195407, “OPTIMIZATION OF ENGINEERED MEGANUCLEASES FOR RECOGNITION SEQUENCES” (Precision BioSciences, Inc., published 2022):

What was measured:
Test in all cases: cell_activity; CHO iGFFP reporter
LOX 3-4m.509 = biological target: T1, LOX 3-4m.509 (artificial (I-CreI derived))
T1 chain: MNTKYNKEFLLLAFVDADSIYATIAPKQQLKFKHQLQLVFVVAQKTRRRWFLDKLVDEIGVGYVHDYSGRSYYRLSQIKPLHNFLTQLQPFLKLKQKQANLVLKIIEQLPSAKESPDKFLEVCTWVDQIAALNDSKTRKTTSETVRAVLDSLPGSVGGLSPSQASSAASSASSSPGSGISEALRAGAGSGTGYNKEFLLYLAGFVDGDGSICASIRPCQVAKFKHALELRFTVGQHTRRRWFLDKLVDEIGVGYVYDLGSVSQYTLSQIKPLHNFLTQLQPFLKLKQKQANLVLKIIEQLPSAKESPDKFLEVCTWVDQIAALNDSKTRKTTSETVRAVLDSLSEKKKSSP
Description: (§1) A CHO cell reporter system (see WO/2012/167192, FIG. 3) was used to determine whether the engineered meganucleases generated in these studies could recognize and cleave the modified LOX 3-4 recognition sequences in Table 87. To perform the assay, a pair of CHO cell reporter lines were produced, which carried a non-functional Green Fluorescent Protein (GFP) gene expression cassette integrated into the genome of the cell. The GFP gene in each cell line was interrupted by a pair of recognition sequences such that intracellular cleavage of either recognition sequence by a meganuclease would stimulate a homologous recombination event resulting in a functional GFP gene. In both cell lines, one of the recognition sequences was derived from the LOX 3-4 recognition sequence (i.e., those sequences disclosed in Table 87), and the second recognition sequence was specifically recognized by a control meganuclease called “CHO 23/24.” CHO reporter cells comprising a recognition sequence derived from the LOX 3-4 recognition sequence and the CHO 23/24 recognition sequence are referred to herein as “test cells.”
(§2) Novel engineered meganucleases derived from the LOX 3-4x.109 meganuclease were prepared by making amino acid substitutions at one or more positions in the first subunit and one or more positions in the second subunit. The N-terminal subunit recognizes the reverse complement of the AG portion of the four base pair center sequence, which is CT, and the C-terminal subunit recognizes the GC portion of the […] center sequence. These engineered meganucleases were then evaluated for cleavage of the LOX 3-4 recognition sequence modified to have a GCAG center sequence (SEQ ID NO: 326) in the CHO reporter assay according to Example 1. The substitutions in each subunit are provided in Tables 180 and 181, respectively.

LOX 3-4m.524 = biological target: T2, LOX 3-4m.524 (artificial (I-CreI derived))
T2 chain: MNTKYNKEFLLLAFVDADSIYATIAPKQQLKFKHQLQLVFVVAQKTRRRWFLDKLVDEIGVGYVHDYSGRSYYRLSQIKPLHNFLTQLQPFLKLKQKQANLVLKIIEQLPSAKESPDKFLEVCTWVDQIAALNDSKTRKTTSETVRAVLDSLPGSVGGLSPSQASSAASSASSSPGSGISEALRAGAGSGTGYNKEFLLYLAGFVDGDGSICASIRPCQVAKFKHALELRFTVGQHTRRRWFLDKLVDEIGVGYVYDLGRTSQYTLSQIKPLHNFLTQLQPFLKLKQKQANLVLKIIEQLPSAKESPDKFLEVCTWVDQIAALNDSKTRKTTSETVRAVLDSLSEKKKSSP
Description: as §1, §2

LOX 3-4m.494 = biological target: T3, LOX 3-4m.494 (artificial (I-CreI derived))
T3 chain: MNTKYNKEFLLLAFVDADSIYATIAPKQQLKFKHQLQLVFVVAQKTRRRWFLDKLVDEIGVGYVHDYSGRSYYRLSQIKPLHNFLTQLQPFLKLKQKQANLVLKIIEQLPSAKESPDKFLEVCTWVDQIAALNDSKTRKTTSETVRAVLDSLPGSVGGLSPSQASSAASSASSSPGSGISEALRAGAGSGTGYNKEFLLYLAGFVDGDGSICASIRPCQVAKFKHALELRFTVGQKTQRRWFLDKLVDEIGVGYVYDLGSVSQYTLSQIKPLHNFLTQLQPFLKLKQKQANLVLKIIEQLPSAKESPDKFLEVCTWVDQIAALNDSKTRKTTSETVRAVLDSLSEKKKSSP
Description: as §1, §2

LOX 3-4m.1036 = biological target: T4, LOX 3-4m.1036 (artificial (I-CreI derived))
T4 chain: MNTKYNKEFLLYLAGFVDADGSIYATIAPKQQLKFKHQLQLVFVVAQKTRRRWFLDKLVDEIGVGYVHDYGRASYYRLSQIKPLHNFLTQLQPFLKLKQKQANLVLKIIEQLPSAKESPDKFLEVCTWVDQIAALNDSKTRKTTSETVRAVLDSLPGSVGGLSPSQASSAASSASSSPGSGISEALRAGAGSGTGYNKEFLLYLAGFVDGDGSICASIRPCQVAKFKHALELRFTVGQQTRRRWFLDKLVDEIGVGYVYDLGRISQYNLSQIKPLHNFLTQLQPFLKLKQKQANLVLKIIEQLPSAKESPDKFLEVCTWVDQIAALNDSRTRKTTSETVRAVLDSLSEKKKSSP
Description: as §1
(§3) Novel engineered meganucleases derived from the LOX 3-4x.109 meganuclease were prepared by making amino acid substitutions at one or more positions in the first subunit and one or more positions in the second subunit. These engineered meganucleases were then evaluated for cleavage of the LOX 3-4 recognition sequence modified to have an ACGA center sequence (SEQ ID NO: 68) in the CHO reporter assay according to Example 1.

LOX 3-4m.956 = biological target: T5, LOX 3-4m.956 (artificial (I-CreI derived))
T5 chain: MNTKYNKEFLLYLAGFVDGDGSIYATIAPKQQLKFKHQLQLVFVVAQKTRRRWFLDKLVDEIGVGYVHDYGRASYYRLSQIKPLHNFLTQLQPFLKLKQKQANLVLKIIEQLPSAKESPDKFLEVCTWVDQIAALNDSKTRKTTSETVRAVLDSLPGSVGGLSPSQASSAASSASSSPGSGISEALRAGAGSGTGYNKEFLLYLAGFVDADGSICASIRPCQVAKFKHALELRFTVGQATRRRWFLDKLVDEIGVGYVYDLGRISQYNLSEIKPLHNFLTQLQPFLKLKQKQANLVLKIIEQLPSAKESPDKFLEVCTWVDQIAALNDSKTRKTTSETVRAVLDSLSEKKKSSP
Description: as §1, §3

LOX 3-4m.1013 = biological target: T6, LOX 3-4m.1013 (artificial (I-CreI derived))
T6 chain: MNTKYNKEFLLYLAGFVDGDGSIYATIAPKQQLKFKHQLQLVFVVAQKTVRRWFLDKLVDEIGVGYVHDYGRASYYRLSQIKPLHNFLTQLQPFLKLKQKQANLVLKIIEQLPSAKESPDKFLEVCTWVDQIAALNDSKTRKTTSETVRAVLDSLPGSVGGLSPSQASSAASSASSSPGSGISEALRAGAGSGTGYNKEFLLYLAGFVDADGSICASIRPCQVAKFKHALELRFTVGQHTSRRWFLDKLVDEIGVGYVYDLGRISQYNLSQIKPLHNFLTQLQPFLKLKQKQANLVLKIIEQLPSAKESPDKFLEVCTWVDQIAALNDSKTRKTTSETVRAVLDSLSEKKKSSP
Description: as §1, §3

LOX 3-4m.1044 = biological target: T7, LOX 3-4m.1044 (artificial (I-CreI derived))
T7 chain: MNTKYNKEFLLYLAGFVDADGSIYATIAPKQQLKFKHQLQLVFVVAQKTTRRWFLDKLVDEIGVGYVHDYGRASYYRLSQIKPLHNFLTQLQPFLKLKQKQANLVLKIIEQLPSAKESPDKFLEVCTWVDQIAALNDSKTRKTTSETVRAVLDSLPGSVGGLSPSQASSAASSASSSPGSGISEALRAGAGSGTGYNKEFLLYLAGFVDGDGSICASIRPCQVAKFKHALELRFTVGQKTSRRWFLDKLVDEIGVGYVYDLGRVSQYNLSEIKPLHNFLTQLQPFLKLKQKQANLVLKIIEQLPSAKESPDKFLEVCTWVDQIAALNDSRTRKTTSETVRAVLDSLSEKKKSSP
Description: as §1, §3

LOX 3-4m.893 = biological target: T8, LOX 3-4m.893 (artificial (I-CreI derived))
T8 chain: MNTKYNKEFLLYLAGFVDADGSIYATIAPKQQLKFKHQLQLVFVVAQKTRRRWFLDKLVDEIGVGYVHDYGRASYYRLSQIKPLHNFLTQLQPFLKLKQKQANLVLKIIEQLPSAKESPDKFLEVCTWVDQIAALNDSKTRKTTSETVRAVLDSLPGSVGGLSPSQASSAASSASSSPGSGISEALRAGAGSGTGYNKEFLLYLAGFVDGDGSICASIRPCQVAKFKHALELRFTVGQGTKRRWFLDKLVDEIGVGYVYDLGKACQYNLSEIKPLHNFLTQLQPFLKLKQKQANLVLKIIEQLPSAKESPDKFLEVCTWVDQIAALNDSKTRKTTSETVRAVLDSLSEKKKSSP
Description: as §1
as §3, with “sequence, which normally comprises” for “sequence modified to have”, “ACAT” for “ACGA”, “44)” for “68)”

LOX 3-4m.869 = biological target: T9, LOX 3-4m.869 (artificial (I-CreI derived))
T9 chain: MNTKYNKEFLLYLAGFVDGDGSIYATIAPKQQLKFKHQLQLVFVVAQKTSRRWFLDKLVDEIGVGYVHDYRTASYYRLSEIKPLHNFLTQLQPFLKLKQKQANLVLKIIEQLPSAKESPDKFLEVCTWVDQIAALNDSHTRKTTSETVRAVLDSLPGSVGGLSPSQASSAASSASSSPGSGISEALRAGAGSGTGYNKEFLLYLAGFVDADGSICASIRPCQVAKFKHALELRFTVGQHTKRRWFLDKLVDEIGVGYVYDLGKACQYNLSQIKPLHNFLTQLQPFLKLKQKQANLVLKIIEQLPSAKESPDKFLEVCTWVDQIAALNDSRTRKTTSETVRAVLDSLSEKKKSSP
Description: as §1
as §3, with “sequence, which normally comprises” for “sequence modified to have”, “ACAT” for “ACGA”, “44)” for “68)”

LOX 3-4m.949 = biological target: T10, LOX 3-4m.949 (artificial (I-CreI derived))
T10 chain: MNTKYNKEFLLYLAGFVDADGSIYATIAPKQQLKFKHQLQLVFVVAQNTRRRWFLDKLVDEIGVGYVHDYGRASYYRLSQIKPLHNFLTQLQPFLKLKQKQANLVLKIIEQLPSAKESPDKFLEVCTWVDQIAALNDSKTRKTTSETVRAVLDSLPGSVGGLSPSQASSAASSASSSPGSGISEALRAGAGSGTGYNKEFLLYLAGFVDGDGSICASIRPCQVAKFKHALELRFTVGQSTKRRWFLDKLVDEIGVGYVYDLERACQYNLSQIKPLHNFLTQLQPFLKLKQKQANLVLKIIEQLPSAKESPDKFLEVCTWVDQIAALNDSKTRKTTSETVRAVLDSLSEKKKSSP
Description: as §1
as §3, with “sequence, which normally comprises” for “sequence modified to have”, “ACAT” for “ACGA”, “44)” for “68)”

LOX 3-4m.925 = biological target: T11, LOX 3-4m.925 (artificial (I-CreI derived))
T11 chain: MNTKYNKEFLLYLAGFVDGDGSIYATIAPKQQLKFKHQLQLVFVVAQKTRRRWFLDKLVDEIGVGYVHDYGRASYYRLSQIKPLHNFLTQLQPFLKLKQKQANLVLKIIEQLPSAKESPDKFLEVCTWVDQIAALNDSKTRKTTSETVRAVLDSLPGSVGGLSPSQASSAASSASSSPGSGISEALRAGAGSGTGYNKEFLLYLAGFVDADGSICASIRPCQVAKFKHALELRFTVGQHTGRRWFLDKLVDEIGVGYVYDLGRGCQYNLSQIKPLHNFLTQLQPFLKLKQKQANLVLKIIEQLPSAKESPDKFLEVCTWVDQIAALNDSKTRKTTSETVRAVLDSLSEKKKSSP
Description: as §1
as §3, with “sequence, which normally comprises” for “sequence modified to have”, “ACAT” for “ACGA”, “44)” for “68)”

B1: LOX 3-4 GCAG (dsDNA)
DNA 1: GTATAGCATGCAGTATACGAAG
DNA 2: CTTCGTATACTGCATGCTATAC
How did the activity (LOX 3-4m.509) turn out when B1 was run?
The activity was 13.4 % GFP.

And the activity (LOX 3-4m.524)?
The activity was 16.6 % GFP.

What about the activity (LOX 3-4m.494) of the same binder?
Its activity is 13.8 % GFP.

B2: LOX 3-4 ACGA (dsDNA)
DNA 1: GTATAGCATACGATATACGAAG
DNA 2: CTTCGTATATCGTATGCTATAC
Which activity (LOX 3-4m.1036) does the source give for B2 here?
Its activity is 5 % GFP.

And the activity (LOX 3-4m.956)?
Its activity is 4.7 % GFP.

What about the activity (LOX 3-4m.1013) of the same binder?
The activity was 1.7 % GFP.

And the activity (LOX 3-4m.1044)?
Its activity is 5.8 % GFP.

B3: LOX 3-4 ACAT (native LOX 3-4 site, SEQ 6) (dsDNA)
DNA 1: GTATAGCATACATTATACGAAG
DNA 2: CTTCGTATAATGTATGCTATAC
For B3, which activity (LOX 3-4m.893) is on record?
Its activity is 13.1 % GFP.

And the activity (LOX 3-4m.869)?
Its activity is 11.2 % GFP.

What about the activity (LOX 3-4m.949) of the same binder?
Its activity is 12.5 % GFP.

What about the activity (LOX 3-4m.925) of the same binder?
Its activity is 12.2 % GFP.
